# Changes are numbered by the printed parent chain. Read-outs that look alike come from different tables or passages of the source.
# B1: S2X127 (antibody, V domains shown)
# VH: EVQLVESGGGLIQPGGSLRLSCAASGLTVRSNYMSWVRQAPGKGLEWVSVMYSGGSTFYADSVKGRSTISRDNSKNTLYLQMNSLRAEDTAVYYCARGDIADDYHYGLDVWGQGTTVTVSS
# VL: QSVLTQPPSVSGAPGQRVTISCTGSTSNIGAGYNVHWYQHFPGTSPKLLIYGNSNRPSGVPDRFSGSKSGTSASLAITGLQAEDEAAYYCQSYDSNLSGVFGGGTKLTVL
# B2: S2D8 (antibody, V domains shown)
# VH: EVQLLESGGGLVQPGGSLRLSCAASGFTFTTYAMSWVRQAPGKGLEWVSGISGSGGNTYHADSVKGRFTISRDNSKSTLYLQMNSLRAEDTAVYYCAKDLWFREILHGMDVWGEGTTVTVSS
# VL: QSALTQPASVSGSPGQSITISCTGTSSDIGGYNYVSWYQHHPGKAPKIMIYEVTNRPSGVSNRFSGSKSGNTASLTISGLQAEDEADYYCSSYTSSNTYVFGTGTKVTVL
# B3: S2D25 (antibody, V domains shown)
# VH: EVQLVESGGGLVQPGGSLRLSCAASGFPFNIYAMSWVRQAPGKGLEWVSGISGSGGSTYYADSVRGRFAISRDNSKNTLYLQMNSLRAEDTAEYYCAKDLWFREILHGMDVWGKGTTVTVSS
# VL: B2 VL with I29V, K44R, I48L, T54S, T76S, N97S, T103A
# B4: S2H7 (antibody, V domains shown)
# VH: EVQLVESGGGLVQPGGSLRLSCAASGFIVSSNYMSWVRQAPGKGLEWVSVIYSGGSTYYADSVKGRFTISRDNSKNTLYLQMNSLRAEDTSVYYCARDRQYSGSPSFDYWGQGTLVTVSS
# VL: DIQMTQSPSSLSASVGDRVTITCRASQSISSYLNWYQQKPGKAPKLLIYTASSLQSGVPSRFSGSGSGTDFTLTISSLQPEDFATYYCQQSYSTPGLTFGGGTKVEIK
# B5: S2B2 v1 (antibody, V domains shown)
# VH: QVQLVESGGGVVQPGRSLRLSCAASGFTFSNFGMHWVRQAPGKGLEWVAVISYDGNNKFYADSVKGRFTISRDNSKNTLYLQMNSLRAEDTAVYYCAKPTVSFGVVIDAFDIWGQGTMVTVSS
# VL: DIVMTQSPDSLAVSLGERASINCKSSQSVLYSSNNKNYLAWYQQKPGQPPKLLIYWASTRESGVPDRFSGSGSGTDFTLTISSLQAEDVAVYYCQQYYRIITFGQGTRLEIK
# B6: S2B2 v2 (antibody, V domains shown)
# VH: B5 VH with Q1E, A97S
# VL: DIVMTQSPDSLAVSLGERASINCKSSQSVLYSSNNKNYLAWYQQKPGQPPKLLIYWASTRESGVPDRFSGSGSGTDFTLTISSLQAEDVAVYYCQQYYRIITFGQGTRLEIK
# B7: S2H14 (antibody, V domains shown)
# VH: not shown
# VL: NFMLTQPHSVSESPGKTVTISCTRSSGSIASNYVQWYQQRPGSSPTTVIYEDNQRPSGVPDRFSGSIDSSSNSASLTISGLKTEDEADYYCQSYDSSNQVFGGGTKLTVL
# B8: S2X129 (antibody, V domains shown)
# VH: EVQLVQSGAEVKKPGASVKVSCKASGYTFTDYFMHWVRQAPGQGLEWMGWISPNSGGTNYAQRFQGRVTMTRDTSISTTYMELSRLRSDDTAVYYCARDQAYIVLAQGSGMDVWGQGTTVTVSS
# VL: DIVMTQTPSSVSASVGDRVTITCRASQGISSWLAWYQQKPGKAPKLLISAASSLQSGVPSRFSGSGSGTDFTLTISTLQPEDFATYYCQQANSFPLAFGPGTKVDIK
# B9: S2A15 v1 (antibody, V domains shown)
# VH: QVQLQESGPGLVKPSGTLSLTCAVSGGSISSSNWWSWVRQPPGKGLEWIGEIYHSGNTNYNPSLKSRVTISVDKSKNQFSLKLTSVTAADTAVYYCASRYCSSTSCPNWFDPWGQGTLVTVSS
# VL: QSALTQPASVSGSPGQSITISCTGTSSDVGSYNLVSWYQQHPGKAPKFMIYEGSKRPSGVSNRFSGSKSGNTASLTISGLQAEDEADYYCCSYAGSSTWVFGGGTKLTVL
# B10: S2A15 v2 (antibody, V domains shown)
# VH: B9 VH with V2I, Q3T, Q5K
# VL: B9 VL
# B11: S2D32 (antibody, V domains shown)
# VH: EVQLVESGGGLVQPGRSLRLSCTSSGFTFGDYPMSWFRQAPGKGLEWVGFIRSKAYGGTTQYAASVKGRFTISRDDSKNIAYLQMNSLKTEDTAVYYCTREMWDCSGGRCYSPFFDYWGQGTLVTVSS
# VL: EIVMTQSPATLSVSPGERATLSCRASQTVSSNLAWYQQKPGQAPRLLIYGASTRATGIPARFSGSGSGTEFTLTISSLQSEDFAVYYCQQYNNWRTFGQGTKLEIK
# B12: S2A4 (antibody, V domains shown)
# VH: EVQLVESGGGLVQPGGSLRLSCAASGFTFSSYWMNWVRQAPGKGLEWVANIKQDGSEKYYVDSVKGRFTISRDNAKNSLFLQMNSLRAEDTAVYYCARVWWLRGSFDYWGQGTLVTVSS
# VL: NFMLTQPHSVSESPGKTVTISCTGSSGSIASNYVQWYQQRPGSAPTTVIYEDNQRPSGVPDRFSGSIDSSSNSASLTISGLKTEDEADYYCQSYDSSNHVVFGGGTKLTVL
# B13: S2D22 (antibody, V domains shown)
# VH: EVHLVESGGGLVQPGGSLKLSCAASGFTFSGSAMHWVRQASGKGLEWVGRIRTKANTYATAYAASVKGRFTISRDDSKNTAYLQMNSLKTEDTAVYYCTRPAPYDFLSDYYTGEQLDYWGQGTLVTVSS
# VL: QSVLTQPPSVSGAPGQRVTISCTGSSSNIGAGYDVHWYQQLPGAAPKLLIYGNSNRPSGVPDRFSGSKSGTSASLAITGLQAEDEADYYCQSYDSSLSGPEVFGTGTKVTVL
# B14: S2X227 (antibody, V domains shown)
# VH: EVQLVQSGAEVKKPGASVKVSCKASGYTFTSYYMHWVRQAPGQGLEWMGIINPGGVSTTYAHYAQKFQGRVTMTRDTSTSTVYMELSSLRSEDTAVYYCARSIAVFWGDAFDIWGQGTMVTVSS
# VL: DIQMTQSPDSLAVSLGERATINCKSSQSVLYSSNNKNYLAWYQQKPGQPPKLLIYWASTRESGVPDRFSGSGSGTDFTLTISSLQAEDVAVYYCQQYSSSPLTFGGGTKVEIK
# B15: S2X132 (antibody, V domains shown)
# VH: EVQLVESGGGLVQPGGSLRLSCAASGFTVSSNYMSWVRQAPGKGLEWVSVIYSGGNTYYADSVKGRFTISRDNSKNTLYLQMISLRAEDTAVYYCARDRRLPSIIFGLDVWGQGTTVTVSS
# VL: QSALTQPASVSGSPGQSITISCTGTSSDVGGNNHVSWYRQHPGKAPKLMIYEVSNRPSGVSNRFSGSKSGNTASLTISGLQAGDEADYYCSSFTTYTTDVVFGGGTKLTVL
# Columns and labels:
# [1] = target: T1, SARS-CoV-2 RBD-mouse Fc (Sino Biological) (SARS-CoV-2, UniProt P0DTC2 331-541)
# [2] = target: T2, SARS-CoV-2 RBD (residues 331-550 of spike from BetaCoV/Wuhan-Hu-1/2019, accession number MN908947) (SARS-CoV-2 Wuhan-Hu-1, UniProt P0DTC2 331-550); assay: BLI (Octet): antibody on Protein A pins, SARS-CoV-2 RBD at 6, 1.5 and 0.4 µg/ml
# [3] = target: T3, SARS-CoV RBD (Sino Biological) (SARS-CoV, UniProt P59594 306-527); assay: ELISA
# [4] = target: T1, SARS-CoV-2 RBD-mouse Fc (Sino …); remark: listed apart in the source
# SARS-CoV-2 Spike protein [5] = target: T4, SARS-CoV-2 Spike protein (SARS-CoV-2 Wuhan-Hu-1, UniProt P0DTC2 14-1273); assay: cell-based or functional assay
# [6] = target: T1, SARS-CoV-2 RBD-mouse Fc (Sino …); remark: listed apart in the source
# SARS-CoV-2 Spike protein [7] = target: T4, SARS-CoV-2 Spike protein; assay: cell-based or functional assay; remark: listed apart in the source
# SARS-CoV-2 Spike protein [8] = target: T4, SARS-CoV-2 Spike protein
# [9] = target: T2, SARS-CoV-2 RBD (residues 331-550 of …); assay: BLI (Octet): antibody on Protein A pins, SARS-CoV-2 RBD at 6, 1.5 and 0.4 µg/ml; remark: listed apart in the source
# SARS-CoV-2 Spike protein [10] = target: T4, SARS-CoV-2 Spike protein; remark: listed apart in the source
# [11] = target: T2, SARS-CoV-2 RBD (residues 331-550 of …); assay: ELISA
# [12] = target: T3, SARS-CoV RBD (Sino Biological); assay: ELISA; remark: listed apart in the source
# SARS-CoV-2 Spike protein [13] = target: T4, SARS-CoV-2 Spike protein; assay: cell-based or functional assay; remark: listed apart in the source
# SARS-CoV Spike protein = SARS-CoV Spike protein (SARS-CoV, UniProt P59594 14-1255); assay: cell-based or functional assay
# [14] = target: T2, SARS-CoV-2 RBD (residues 331-550 of …); assay: BLI
# [15] = target: T3, SARS-CoV RBD (Sino Biological); assay: BLI
# SARS-CoV-2 Spike protein [16] = target: T4, SARS-CoV-2 Spike protein; assay: cell-based or functional assay; remark: listed apart in the source
# SARS-CoV-2 Spike protein [17] = target: T4, SARS-CoV-2 Spike protein; assay: cell-based or functional assay; remark: listed apart in the source
# [18] = target: T3, SARS-CoV RBD (Sino Biological)
# [19] = target: T2, SARS-CoV-2 RBD (residues 331-550 of …)
# [20] = target: T1, SARS-CoV-2 RBD-mouse Fc (Sino …); remark: listed apart in the source
# [21] = target: T2, SARS-CoV-2 RBD (residues 331-550 of …); assay: BLI (Octet): antibody on Protein A pins, SARS-CoV-2 RBD at 6, 1.5 and 0.4 µg/ml; remark: listed apart in the source
binder,measurement,setting,value
B1,IC50,[1],0.0102 mg/L
same,Kd,[2],< 0.001 nM
B2,binding result,[3],no binding
same,IC50 (read off the curve),[4],~0.03 mg/L
same,neutralization IC50,SARS-CoV-2 Spike protein [5],0.03 mg/L
same,neutralization IC80,SARS-CoV-2 Spike protein [5],0.058 mg/L
same,neutralization IC90,SARS-CoV-2 Spike protein [5],0.087 mg/L
same,neutralization IC95,SARS-CoV-2 Spike protein [5],0.125 mg/L
B3,binding result,[3],no binding
same,IC50 (read off the curve),[6],~0.03 mg/L
same,neutralization IC50,SARS-CoV-2 Spike protein [5],0.04 mg/L
same,neutralization IC80,SARS-CoV-2 Spike protein [5],0.091 mg/L
same,neutralization IC90,SARS-CoV-2 Spike protein [5],0.146 mg/L
same,neutralization IC95,SARS-CoV-2 Spike protein [5],0.228 mg/L
B4,neutralization IC50,SARS-CoV-2 Spike protein [7],0.195 mg/L
B5,EC50,SARS-CoV-2 Spike protein [8],0.0107 mg/L
B6,EC50,SARS-CoV-2 Spike protein [8],0.00812 mg/L
B7,neutralization IC50,SARS-CoV-2 Spike protein [7],0.847 mg/L
B8,Kd,[9],0.857 nM
same,IC50,[1],0.0214 mg/L
B9,EC50,SARS-CoV-2 Spike protein [10],0.656 mg/L
B10,EC50,SARS-CoV-2 Spike protein [10],0.335 mg/L
B11,binding result,[3],no binding
same,IC50 (read off the curve),[6],~0.03 mg/L
same,neutralization IC50,SARS-CoV-2 Spike protein [5],0.036 mg/L
same,neutralization IC80,SARS-CoV-2 Spike protein [5],0.081 mg/L
same,neutralization IC90,SARS-CoV-2 Spike protein [5],0.129 mg/L
same,neutralization IC95,SARS-CoV-2 Spike protein [5],0.2 mg/L
B12,IC50 (read off the curve),[4],~0.06 mg/L
same,neutralization IC50,SARS-CoV-2 Spike protein [7],3.45 mg/L
B13,EC50,[11],0.0353 mg/L
same,EC50,[12],0.0422 mg/L
same,neutralization IC50,SARS-CoV-2 Spike protein [5],0.865 mg/L
same,neutralization IC80,SARS-CoV-2 Spike protein [5],3.28 mg/L
same,neutralization IC90,SARS-CoV-2 Spike protein [5],7.16 mg/L
same,neutralization IC95,SARS-CoV-2 Spike protein [5],14.7 mg/L
same,neutralization IC50,SARS-CoV-2 Spike protein [13],1.03 mg/L
same,neutralization IC50,SARS-CoV Spike protein,3.63 mg/L
same,Kd,[14],5.21 nM
same,Kd,[15],53.5 nM
B14,neutralization IC50,SARS-CoV-2 Spike protein [16],0.00445 mg/L
same,neutralization EC50 (interpolated),SARS-CoV-2 Spike protein [17],0.0053 mg/L
same,EC50,[18],1.35 mg/L
same,EC50,[19],0.00109 mg/L
same,IC50,[20],0.0274 mg/L
B15,IC50,[1],0.0248 mg/L
same,Kd,[21],0.709 nM
